Data from US20240043542A1 (published 2024).
Residue numbers refer to the chain shown, from its start.

T1: human B7-H4 on the cell surface (human, UniProt Q7Z7D3 25-282)
T1 construct: full-length human B7-H4 on transfected HEK293T cells or endogenous on SK-BR-3 cells; also called SK-BR-3 (endogenous human B7-H4)
T1 sequence: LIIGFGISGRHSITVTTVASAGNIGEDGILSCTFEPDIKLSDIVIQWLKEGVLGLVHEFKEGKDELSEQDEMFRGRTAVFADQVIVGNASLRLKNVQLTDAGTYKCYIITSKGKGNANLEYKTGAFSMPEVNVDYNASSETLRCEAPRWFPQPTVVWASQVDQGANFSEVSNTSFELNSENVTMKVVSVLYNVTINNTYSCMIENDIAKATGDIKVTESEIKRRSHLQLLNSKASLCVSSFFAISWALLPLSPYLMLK

T2: cynomolgus monkey B7-H4 on the cell surface (cynomolgus monkey, UniProt Q7Z7D3 25-282 (human entry))
T2 construct: full-length, on transfected HEK293T cells
T2 chain: T1 sequence with L53I, F242L, S252A

T3: mouse B7-H4 on the cell surface (mouse, UniProt Q7TSP5 25-257)
T3 construct: full-length, on transfected HEK293T cells
T3 sequence: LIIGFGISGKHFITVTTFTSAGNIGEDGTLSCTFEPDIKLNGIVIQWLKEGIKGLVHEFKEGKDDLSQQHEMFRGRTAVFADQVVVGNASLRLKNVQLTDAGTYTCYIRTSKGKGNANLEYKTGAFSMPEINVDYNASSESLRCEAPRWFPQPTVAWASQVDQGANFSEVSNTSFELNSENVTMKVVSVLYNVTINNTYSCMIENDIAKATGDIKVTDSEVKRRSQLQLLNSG

T4: rat B7-H4 on the cell surface (rat, UniProt Q501W4 25-257)
T4 construct: full-length, on transfected HEK293T cells
T4 sequence: T3 sequence with R109H, Q228E

T5: mouse B7-H4 (recombinant, BLI) (mouse, UniProt Q7TSP5 29-256, limits assumed)
T5 construct: also called murine B7-H4
T5 sequence: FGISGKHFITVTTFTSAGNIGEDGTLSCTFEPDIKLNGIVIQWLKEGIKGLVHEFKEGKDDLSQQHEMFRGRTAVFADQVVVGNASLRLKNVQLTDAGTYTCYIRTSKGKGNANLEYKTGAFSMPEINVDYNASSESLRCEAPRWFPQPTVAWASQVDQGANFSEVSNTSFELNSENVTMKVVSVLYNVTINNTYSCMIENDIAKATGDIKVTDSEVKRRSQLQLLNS

T6: cynomolgus monkey B7-H4 (recombinant, BLI) (cynomolgus monkey, UniProt Q7Z7D3 25-259 (human entry))
T6 construct: also called Cynomolgus B7-H4
T6 sequence: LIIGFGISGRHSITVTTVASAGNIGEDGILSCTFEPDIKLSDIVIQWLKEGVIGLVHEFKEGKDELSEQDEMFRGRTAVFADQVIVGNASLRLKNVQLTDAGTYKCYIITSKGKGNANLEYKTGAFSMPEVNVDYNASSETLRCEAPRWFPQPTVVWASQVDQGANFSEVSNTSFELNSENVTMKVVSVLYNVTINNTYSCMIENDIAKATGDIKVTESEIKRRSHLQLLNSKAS

B1: B7-H4 antibody 20500 (antibody, human IgG1, kappa, V domains shown)
VH: QLQLQESGPGLVKPSETLSLTCTVSGGSIKSGSHYWGWIRQPPGKGLEWIGNIYYSGSTYYNPSLRSRVTISVDTSKNQFSLKLSSVTAADTAVYYCAREGSYPNWFDPWGQGTLVTVSS
VL: EIVMTQSPATLSVSPGERATLSCRASQSVSSNLAWYQQKPGQAPRLLIYGASTRATGIPARFSGSGSGTEFTLTISSLQSEDFAVYYCQQYHSFPFTFGGGTKVEIKR
notes: human IgG1/kappa
B2: B7-H4 antibody 20502.1 (antibody, human IgG1, kappa, V domains shown)
VH: B1 VH with H34Y, R66K, W106Q, T114I
VL: B1 VL
notes: human IgG1/kappa
B3: B7-H4 antibody 20501 (antibody, human IgG1, kappa, V domains shown)
VH: B1 VH with R66K, F107L
VL: B1 VL
notes: human IgG1/kappa
B4: B7-H4 antibody 15461 (antibody, human IgG1, kappa, V domains shown)
VH: B1 VH with K30S, G32S, H34Y, R66K
VL: B1 VL
notes: human IgG1/kappa
B5: B7-H4 antibody 15503 (antibody, human IgG1, kappa, V domains shown)
VH: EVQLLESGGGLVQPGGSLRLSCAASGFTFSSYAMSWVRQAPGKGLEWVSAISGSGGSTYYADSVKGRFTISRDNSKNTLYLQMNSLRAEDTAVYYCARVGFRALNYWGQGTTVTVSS
VL: DIQLTQSPSSVSASVGDRVTITCRASQDISSWLAWYQQKPGKAPKLLIYAASSLQSGVPSRFSGSGSGTDFTLTISSLQPEDFATYYCQQATSYPPWTFGGGTKVEIKR
notes: human IgG1/kappa
B6: B7-H4 antibody 15465 (antibody, human IgG1, kappa, V domains shown)
VH: QVQLQESGPGLVKPSQTLSLTCTVSGGSISSGGYYWSWIRQHPGKGLEWIGNIYYSGSTYYNPSLKSRVTISVDTSKNQFSLKLSSVTAADTAVYYCARESSTISADFDLWGRGTLVTVSS
VL: DIQMTQSPSSVSASVGDRVTITCRASQGISRWLAWYQQKPGKAPKLLIYAASSLQSGVPSRFSGSGSGTDFTLTISSLQPEDFATYYCQQAHTFPYTFGGGTKVEIKR
notes: human IgG1/kappa
B7: B7-H4 antibody 15441 (antibody, human IgG1, kappa, V domains shown)
VH: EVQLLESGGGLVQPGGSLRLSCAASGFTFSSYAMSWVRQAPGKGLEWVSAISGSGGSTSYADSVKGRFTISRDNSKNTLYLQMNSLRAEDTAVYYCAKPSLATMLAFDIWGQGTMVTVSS
VL: DIQMTQSPSTLSASVGDRVTITCRASQSISSWLAWYQQKPGKAPKLLIYDASSLESGVPSRFSGSGSGTEFTLTISSLQPDDFATYYCQQSKSYPRTFGGGTKVEIKR
notes: human IgG1/kappa

Each binder was assayed against T1, human B7-H4 on the cell surface (assay: flow cytometry, 100 nM, transfected HEK293T).
Description: (§1) HEK293T cell lines were transfected to express full-length human, cynomolgus monkey, mouse, or rat B7-H4. In addition, the endogenous human B7-H4 expressing SK-BR-3 breast cancer cell line was used to assess the ability of the antibodies to bind B7-H4 expressed on the cell surface. 1×10⁵ parental HEK293T or transfected HEK293T cell lines were incubated with 100 nM of the B7-H4 antibodies. Following incubation, cells were pelleted, washed, and incubated with a secondary labeling antibody, and samples were acquired on a flow cytometer. Fold binding over the parental cell line (FOP) was calculated as follows: MFI transfected HKE293T cells/MFI parental HEK293T cells.

FOP (fold binding over the parental cell line) [fold] | Binder
182 | B1
200 | B2
205 | B3
333 | B4
289 | B5
626 | B6
67 | B7

Target: T2, cynomolgus monkey B7-H4 on the cell …
Experiment: flow cytometry, 100 nM, transfected HEK293T
Description: as §1

FOP (fold binding over the parental cell line) [fold] | Binder
630 | B1
683 | B2
728 | B3
610 | B4
877 | B5
1320 | B6

Each binder was assayed against T3, mouse B7-H4 on the cell surface (assay: flow cytometry, 100 nM, transfected HEK293T).
Description: as §1

FOP (fold binding over the parental cell line) [fold] | Binder
478 | B1
559 | B2
546 | B3
887 | B4
690 | B6

The binders below were run against T3, mouse B7-H4 on the cell surface (assay: flow cytometry, transfected HEK293T).

Binder | binding result
B5 | no binding (tested: FOP 10; 100 nM antibody)
B7 | no binding (tested: FOP 10; 100 nM antibody)

These binders were tested against T4, rat B7-H4 on the cell surface (assay: flow cytometry, transfected 293 cells).
Description: (§2) Following incubation, cells were pelleted, washed and incubated with a secondary labeling antibody and samples were acquired on a flow cytometer. Data was analyzed using the FlowJo software and MFI was plotted vs. antibody concentration. The EC50 cell binding potency was calculated using nonlinear regression curve fit (GraphPad Prism).

EC50 [nM] | Binder
1.14 | B1
1.26 | B2
1.15 | B3
1.67 | B4
1.47 | B6

Target: T2, cynomolgus monkey B7-H4 on the cell …
Experiment: flow cytometry, transfected 293 cells
Description: as §2

EC50 [nM] | Binder
3.38 | B1
4.94 | B2
3.89 | B3
6.77 | B4
4.9 | B6

Each binder was assayed against T3, mouse B7-H4 on the cell surface (assay: flow cytometry, transfected 293 cells).
Description: as §2

EC50 [nM] | Binder
4 | B1
5.57 | B2
4.67 | B3
6.37 | B4
5.34 | B6

What follows are binders tested against T7, B7-H4 IgV-huIgG1 (human) (assay: SPR, antibody captured by anti-human Fab, antigen in flow).
T7 construct: also called N-terminal domain of human B7-H4
Description: Briefly, anti-human Fab antibody was immobilized on a carboxyl-derivatized SPR chip surface, and anti-B7-H4 antibodies were captured on the resulting surface at 5 ug/ml for 30 seconds.

Kd [nM] | koff [s⁻¹] | kon [M⁻¹ s⁻¹] | Binder
30.4 | 0.00519 | 171000 | B4
17.3 | 0.00417 | 241000 | B6

The binders below were run against T5, mouse B7-H4 (recombinant, BLI) (assay: BLI, antigen on Protein A tips;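 further: Anti-B7-H4 antibodies assessed for affinity toward the B7-H4 extracellular domain using biolayer interferometry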).
Description: (§3) Binding affinities of anti-B7-H4 antibodies to B7-H4-extracellular domain (ECD) were determined by biolayer interferometry (BLI). […] Anti-B7-H4 antibodies were then evaluated for binding.

Kd [nM] | koff [s⁻¹] | kon [M⁻¹ s⁻¹] | binding result | Binder
8.25 | 0.00336 | 408000 | – | B1
3.99 | 0.00207 | 520000 | – | B2
3.35 | 0.00375 | 1.12e+06 | – | B3
55.7 | 0.017 | 305000 | – | B4
– | – | – | no binding | B5
89.6 | 0.0265 | 296000 | – | B6
– | – | – | no binding | B7

Each binder was assayed against T8, recombinant human B7-H4-huIgG1 (human) (assay: BLI, antigen on Protein A tips;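 further: Anti-B7-H4 antibodies assessed for affinity toward the B7-H4 extracellular domain using biolayer interferometry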).
T8 construct: also called B7-H4-extracellular domain (ECD)
Description: as §3

Kd [nM] | koff [s⁻¹] | kon [M⁻¹ s⁻¹] | Binder
5.97 | 0.00233 | 391000 | B1
3.07 | 0.0015 | 487000 | B2
2.56 | 0.00251 | 980000 | B3
62.9 | 0.024 | 381000 | B4
10.4 | 0.0205 | 1.96e+06 | B5
51.3 | 0.0248 | 484000 | B6
7.15 | 0.00872 | 1.22e+06 | B7

What follows are binders tested against T6, cynomolgus monkey B7-H4 (recombinant, …) (assay: BLI, antigen on Protein A tips;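 further: Anti-B7-H4 antibodies assessed for affinity toward the B7-H4 extracellular domain using biolayer interferometry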).
Description: as §3

Kd [nM] | koff [s⁻¹] | kon [M⁻¹ s⁻¹] | Binder
5.47 | 0.00229 | 418000 | B1
2.64 | 0.00139 | 528000 | B2
2.42 | 0.00246 | 1.02e+06 | B3
62.1 | 0.027 | 434000 | B4
6.32 | 0.0115 | 1.82e+06 | B5
51.1 | 0.0278 | 544000 | B6
54.6 | 0.0727 | 1.33e+06 | B7

The binders below were run against T1, human B7-H4 on the cell surface (assay: flow cytometry, SK-BR-3 cells).
Description: as §2

EC50 [nM] | Binder
1.54 | B1
2.5 | B2
1.9 | B3
5.66 | B4
2.13 | B6
34.3 | B7

Each binder was assayed against T1, human B7-H4 on the cell surface (assay: cell-based or functional assay).

Donor 1 Max IFNγ [pg/mL] | Donor 2 Max IFNγ [pg/mL] | Donor 3 Max IFNγ [pg/mL] | Donor 4 Max IFNγ [pg/mL] | aAPC Assay EC50 (IFNγ production) [nM] | Binder
312 | 165 | 1960 | 987 | 531 | B4
230 | 134 | 1520 | 865 | 4310 | B6

Target: T1, human B7-H4 on the cell surface
Experiment: cell-based or functional assay
Remark: another data set of the same source

Donor 1 Max IFNγ [pg/mL] | Donor 2 Max IFNγ [pg/mL] | Donor 3 Max IFNγ [pg/mL] | Donor 4 Max IFNγ [pg/mL] | aAPC Assay EC50 (IFNγ production) [nM] | Binder
821 | 274 | 118 | 4030 | 0.84 | B1
937 | 304 | 174 | 4270 | 0.79 | B2
850 | 310 | 136 | 4490 | 0.79 | B3
